Measurements from patent publication US20150004174A1 (Amgen, published 2015).
Values belong to the binder of their own block, whether it stands above or below them.

Assays:
[1] = target: human PCSK9 (proprotein convertase subtilisin kexin type 9), wild type (human, UniProt Q8NBP7 31-692, biotinylated in the ELISA formats (site not stated)); assay: cell-based or functional assay
human PCSK9 D374Y mutant = human PCSK9 D374Y mutant (human, UniProt Q8NBP7 31-692, biotinylated in the ELISA formats (site not stated)); assay: cell-based or functional assay
[2] = target: T1, mouse PCSK9, 8xHis tagged (mouse, UniProt Q80W65 35-694); assay: KinExA solution equilibrium
T1 construct: The biotinylated mouse PCSK9 of the hybridoma cross-reactivity screen is entered under this molecule; also called mPCSK9-8xHIS; mPCSK9; not shown: 8xHis tag named only in the label
T1 sequence (Q80W65 35-694): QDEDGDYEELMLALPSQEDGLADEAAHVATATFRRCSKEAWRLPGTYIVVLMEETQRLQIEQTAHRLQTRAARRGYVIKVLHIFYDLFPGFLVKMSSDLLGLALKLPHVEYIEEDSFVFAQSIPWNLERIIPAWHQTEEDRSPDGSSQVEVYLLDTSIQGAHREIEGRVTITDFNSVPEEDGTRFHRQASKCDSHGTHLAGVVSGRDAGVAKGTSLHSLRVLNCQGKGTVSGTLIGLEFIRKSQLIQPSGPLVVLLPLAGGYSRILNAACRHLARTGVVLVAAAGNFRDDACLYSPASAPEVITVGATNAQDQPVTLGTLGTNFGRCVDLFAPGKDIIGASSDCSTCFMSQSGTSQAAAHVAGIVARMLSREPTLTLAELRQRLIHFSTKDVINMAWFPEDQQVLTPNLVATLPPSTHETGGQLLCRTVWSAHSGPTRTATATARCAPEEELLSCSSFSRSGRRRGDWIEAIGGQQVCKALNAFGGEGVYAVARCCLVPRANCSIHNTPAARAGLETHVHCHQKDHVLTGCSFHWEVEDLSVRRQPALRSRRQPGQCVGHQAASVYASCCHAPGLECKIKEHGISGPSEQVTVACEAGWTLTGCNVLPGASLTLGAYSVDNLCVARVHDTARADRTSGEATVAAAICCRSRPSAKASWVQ

- EC50, block of PCSK9-mediated decrease of BODIPY-LDL uptake in HepG2 cells [1]: 124 nM
- EC50, block of PCSK9-mediated decrease of BODIPY-LDL uptake in HepG2 cells (human PCSK9 D374Y mutant): 35.3 nM
B1: 11F1 anti-PCSK9 antibody (antibody, V domains shown)
VH: EVQLVESGGGLVQPGGSLRLSCAASGFTFSNYWMSWVRQAPGKGLEWVASIKQDGSEKYYVDSVKGRFAISRDNAKNSLFLQMNSLRAEDTAVYYCARDLVLMVYDIDYYYYGMDVWGQGTTVTVSS
VL: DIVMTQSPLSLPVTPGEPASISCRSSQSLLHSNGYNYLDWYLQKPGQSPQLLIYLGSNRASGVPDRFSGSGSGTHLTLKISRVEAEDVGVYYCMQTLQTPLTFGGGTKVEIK

- fold lower affinity to mouse PCSK9 than to human and cyno PCSK9 [2]: 10 to 250 fold
B2: 16F12 human IgG4 (antibody, V domains shown)
VH: QVHLVESGGGVVQPGRSLRLSCAASGFTFNSFGMHWVRQAPGKGLEWVALIWSDGSDEYYADSVKGRFTISRDNSKNTLYLQMNSLRAEDTAVYYCARAIAALYYYYGMDVWGQGTTVTVSS
VL: QSVLTQPPSVSAAPGQKVTISCSGSSSNIGNNFVSWYQQLPGTAPKLLIYDYNKRPSGIPDRFSGSKSGTSATLGITGLQTGDEADYYCGTWDSSLSAYVFGTGTRVTVLQ
notes: also called 16F12.1; 16F12, anti-PCSK9 huIgG4
